Results as given in CN113975385A (dated 2022).

Target: T1, human CD20 on Raji cells (human, UniProt P11836 1-297)
T1 construct: whole, on cells; also called Raji (CD20+/CD3-细胞)
T1 sequence (looked up): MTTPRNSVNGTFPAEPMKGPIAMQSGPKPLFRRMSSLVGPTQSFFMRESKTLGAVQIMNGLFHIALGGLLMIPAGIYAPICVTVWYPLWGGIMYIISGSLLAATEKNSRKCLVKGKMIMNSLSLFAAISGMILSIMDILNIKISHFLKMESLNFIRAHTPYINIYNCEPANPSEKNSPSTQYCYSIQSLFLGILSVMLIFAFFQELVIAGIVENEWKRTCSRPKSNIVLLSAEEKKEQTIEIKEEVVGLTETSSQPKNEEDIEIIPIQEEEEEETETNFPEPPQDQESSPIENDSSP
Assay: FACS, simultaneous binding: Calcein-AM Raji and FarRed Jurkat cells mixed 1:1, percent double-positive cells

B1: W3278-U2T3.F18R-1.uIgG4.SP (bispecific antibody)
chain 1: QVQLQQPGAELVKPGASVKMSCKASGYTFTSYNMHWVKQTPGRGLEWIGAIYPGNGDTSYNQKFKGKATLTADKSSSTAYMQLSSLTSEDSAVYYCARSTYYGGDWYFNVWGAGTTVTVSAASTKGPSVFPLAPCSRSTSESTAALGCLVKDYFPEPVTVSWNSGALTSGVHTFPAVLQSSGLYSLSSVVTVPSSSLGTKTYTCNVDHKPSNTKVDKRVGGGGSGGGGSQVQLVQSGAEVKKPGSSVKVSCKASGFAFTDYYIHWVRQAPGQGLEWMGWISPGNVNTKYNENFKGRVTITADKSTSTAYMELSSLRSEDTAVYYCARDGYSLYYFDYWGQGTLVTVLEDLKNVFPPEVAVFEPSEAEISHTQKATLVCLATGFYPDHVELSWWVNGKEVHSGVCTDPQPLKEQPALQDSRYALSSRLRVSATFWQNPRNHFRCQVQFYGLSENDEWTQDRAKPVTQIVSAEAWGRYGPPCPPCPAPEFLGGPSVFLFPPKPKDTLMISRTPEVTCVVVDVSQEDPEVQFNWYVDGVEVHNAKTKPREEQFNSTYRVVSVLTVLHQDWLNGKEYKCKVSNKGLPSSIEKTISKAKGQPREPQVYTLPPCQEEMTKNQVSLWCLVKGFYPSDIAVEWESNGQPENNYKTTPPVLDSDGSFFLYSRLTVDKSRWQEGNVFSCSVMHEALHNHYTQKSLSLSLG
chain 2: QVQLQQPGAELVKPGASVKMSCKASGYTFTSYNMHWVKQTPGRGLEWIGAIYPGNGDTSYNQKFKGKATLTADKSSSTAYMQLSSLTSEDSAVYYCARSTYYGGDWYFNVWGAGTTVTVSAASTKGPSVFPLAPCSRSTSESTAALGCLVKDYFPEPVTVSWNSGALTSGVHTFPAVLQSSGLYSLSSVVTVPSSSLGTKTYTCNVDHKPSNTKVDKRVESKYGPPCPPCPAPEFLGGPSVFLFPPKPKDTLMISRTPEVTCVVVDVSQEDPEVQFNWYVDGVEVHNAKTKPREEQFNSTYRVVSVLTVLHQDWLNGKEYKCKVSNKGLPSSIEKTISKAKGQPREPQVCTLPPSQEEMTKNQVSLSCAVKGFYPSDIAVEWESNGQPENNYKTTPPVLDSDGSFFLVSRLTVDKSRWQEGNVFSCSVMHEALHNHYTQKSLSLSLG
chain 3: QIVLSQSPAILSASPGEKVTMTCRASSSVSYIHWFQQKPGSSPKPWIYATSNLASGVPVRFSGSGSGTSYSLTISRVEAEDAATYYCQQWTSNPPTFGGGTKLEIKRTVAAPSVFIFPPSDEQLKSGTASVVCLLNNFYPREAKVQWKVDNALQSGNSQESVTEQDSKDSTYSLSSTLTLSKADYEKHKVYACEVTHQGLSSPVTKSFNRGEC
light: DIVMTQSPDSLAVSLGERATINCKSSQSLLNSRTRKNYLAWYQQKPGQPPKLLIYWASTRQSGVPDRFSGSGSGTDFTLTISSLQAEDVAVYYCTQSHTLRTFGGGTKVEIKPDIQNPDPAVYQLRDSKSSDKSVCLFTDFDSQTQVSQSKDSDVYITDKCVLDMRSMDFKSNSAVAWSQKSDFACANAFQNSIIPEDTFFPSPESS
notes: WuXiBody format F18R-1, human IgG4 with S228P and knobs-into-holes; also called WBP3278 lead Ab; W3278 lead Ab
Does B1 bind?
Result: binds
